# T1: MP (ARF5/Monopteros) (UniProt P93024 1-902)
# T1 sequence: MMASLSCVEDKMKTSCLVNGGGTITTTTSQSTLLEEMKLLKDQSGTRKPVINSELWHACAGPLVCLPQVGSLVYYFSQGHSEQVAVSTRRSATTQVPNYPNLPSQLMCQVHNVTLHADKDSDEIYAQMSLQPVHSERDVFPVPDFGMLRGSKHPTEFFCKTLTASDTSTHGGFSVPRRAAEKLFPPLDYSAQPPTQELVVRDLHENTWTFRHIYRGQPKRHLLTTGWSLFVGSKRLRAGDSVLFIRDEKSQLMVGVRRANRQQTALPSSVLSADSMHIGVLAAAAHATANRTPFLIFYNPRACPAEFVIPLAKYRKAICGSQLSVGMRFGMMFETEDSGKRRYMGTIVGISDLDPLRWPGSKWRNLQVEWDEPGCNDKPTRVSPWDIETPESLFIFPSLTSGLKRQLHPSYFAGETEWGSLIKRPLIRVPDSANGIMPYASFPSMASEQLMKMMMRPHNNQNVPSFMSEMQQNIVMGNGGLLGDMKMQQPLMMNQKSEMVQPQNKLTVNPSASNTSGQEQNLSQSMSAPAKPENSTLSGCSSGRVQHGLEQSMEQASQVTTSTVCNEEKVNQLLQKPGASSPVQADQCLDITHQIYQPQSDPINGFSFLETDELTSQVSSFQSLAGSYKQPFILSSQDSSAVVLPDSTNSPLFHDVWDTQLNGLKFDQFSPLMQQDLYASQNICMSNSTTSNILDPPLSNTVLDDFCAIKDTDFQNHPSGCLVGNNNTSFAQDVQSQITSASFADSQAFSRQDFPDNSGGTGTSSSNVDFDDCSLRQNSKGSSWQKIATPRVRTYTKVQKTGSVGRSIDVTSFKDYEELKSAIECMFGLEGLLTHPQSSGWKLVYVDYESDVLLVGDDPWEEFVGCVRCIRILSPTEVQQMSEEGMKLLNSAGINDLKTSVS
# B1: IR13 (dsDNA)
# DNA 1: GATGCAGCCGACAAAACACATGATTTTGTCGGCTCACAT
# DNA 2: ATGTGAGCCGACAAAATCATGTGTTTTGTCGGCTGCATC
# Target: T1, MP (ARF5/Monopteros)
# Assay: EMSA; EMSA: 25 mM HEPES pH 7.4, 1 mM EDTA, 2 mM MgCl2, 100 mM KCl, 10% glycerol, 1 mM DTT, 0.5 mM PMSF, 0.1% Triton, 0.045 mg/ml salmon/herring DNA, 20 nM probe, protein 0-500 nM, 1 h at 4 C, 2% agarose in 0.5x TBE
# Details: protein: recombinant; tags: N-terminal His-MBP-His; label: Cy5-dCTP, Klenow fill-in opposite 5' G; blunt after fill-in of 5' G overhang
binder,measurement,value
B1,binding result,binds

# Reference: publication doi:10.1101/359182, “Capturing auxin response factors syntax using DNA binding models”
